Measured values from article PMC7294946.

Target: PRMT1 (UniProt Q99873)
Assay: co-IP with Flag antibody, western blot
Conditions: reference: Flag-RUNX1 wild type; sites T207

Question: “RUNX1 (from UniProt Q01196) Flag-RUNX1 T207A” was tested. Which “binding against the reference” value did it give?
Answer: The value was “weaker”.
